From patent US6875851B1 (priority 1999, dated 2005)

B1: human cystatin C: protein substrate, provided by Dr. Magnus Abrahamson (protein)
chain: SSPGKPPRLVGGPMDASVEEEGVRRALDFAVGEYNKASNDMYHSRALQVVRARKQIVAGVNYFLDVELGRTTCTKTQPNLDNCPFHDQPHLKRKAFCSFQIYAVPWQGTMTLSKSTCQDA
B2: PTP-A: prolyl-tripeptidyl peptidase A (SEQ ID NO:30) from P. gingivalis (protein, listed as Porphyromonas gingivalis)
chain: MKKTIFQQLFLSVCALTVALPCSAQSPETSGKEFTLEQLMPGGKEFYNFYPEYVVGLQWMGDNYVFIEGDDLVFNKANGKSAQTTRFSAADLNALMPEGCKFQTTDAFPSFRTLDAGRGLVVLFTQGGLVGFDMLARKVTYLFDTNEETASLDFSPVGDRVAYVRNHNLYIARGGKLGEGMSRAIAVTIDGTETLVYGQAVHQREFGIEKGTFWSPKGSCLAFYRMDQSMVKPTPIVDYHPLEAESKPLYYPMAGTPSHHVTVGIYHLATGKTVYLQTGEPKEKFLTNLSWSPDENILYVAEVNRAQNECKVNAYDAETGRFVRTLFVETDKHYVEPLHPLTFLPGSNNQFIWQSRRDGWNHLYLYDTTGRLIRQVTKGEWEVTNFAGFDPKGTRLYFESTEASPLERHFYCIDIKGGKTKDLTPESGMHRTQLSPDGSAIIDIFQSPTVPRKVTVTNIGKGSHTLLEAKNPDTGYAMPEIRTGTIMAADGQTPLYYKLTMPLHFDPAKKYPVIVYVYGGPHAQLVTKTWRSSVGGWDIYMAQKGYAVFTVDSRGSANRGAAFEQVIHRRLGQTEMADQMCGVDFLKSQSWVDADRIGVHGWSYGGFMTTNLMLTHGDVFKVGVAGGPVIDWNRYEIMYGERYFDAPQENPEGYDAANLLKRAGDLKGRLMLIHGAIDPVVVWQHSLLFLDACVKARTYPDYYVYPSHEHNVMGPDRVHLYETITRYFTDHL
B3: α2-macroglobulin: Human plasma inhibitor (protein)
chain: SVSGKPQYMVLVPSLLHTETTEKGCVLLSYLNETVTVSASLESVRGNRSLFTDLEAENDVLHCVAFAVPKSSSNEEVMFLTVQVKGPTQEFKKRTTVMVKNEDSLVFVQTDKSIYKPGQTVKFRVVSMDENFHPLNELIPLVYIQDPKGNRIAQWQSFQLEGGLKQFSFPLSSEPFQGSYKVVVQKKSGGRTEHPFTVEEFVLPKFEVQVTVPKIITILEEEMNVSVCGLYTYGKPVPGHVTVSICRKYSDASDCHGEDSQAFCEKFSGQLNSHGCFYQQVKTKVFQLKRKEYEMKLHTEAQIQEEGTVVELTGRQSSEITRTITKLSFVKVDSHFRQGIPFFGQVRLVDGKGVPIPNKVIFIRGNEANYYSNATTDEHGLVQFSINTTNVMGTSLTVRVNYKDRSPCYGYQWVSEEHEEAHHTAYLVFSPSKSFVHLEPMSHELPCGHTQTVQAHYILNGGTLLGLKKLSFYYLIMAKGGIVRTGTHGLLVKQEDMKGHFSISIPVKSDIAPVARLLIYAVLPTGDVIGDSAKYDVENCLANKVDLSFSPSQSLPASHAHLRVTAAPQSVCALRAVDQSVLLMKPDAELSASSVYNLLPEKDLTGFPGPLNDQDNEDCINRHNVYINGITYTPVSSTNEKDMYSFLEDMGLKAFTNSKIRKPKMCPQLQQYEMHGPEGLRVGFYESDVMGRGHARLVHVEEPHTETVRKYFPETWIWDLVVVNSAGVAEVGVTVPDTITEWKAGAFCLSEDAGLGISSTASLRAFQPFFVELTMPYSVIRGEAFTLKATVLNYLPKCIRVSVQLEASPAFLAVPVEKEQAPHCICANGRQTVSWAVTPKSLGNVNFTVSAEALESQELCGTEVPSVPEHGRKDTVIKPLLVEPEGLEKETTFNSLLCPSGGEVSEELSLKLPPNVVEESARASVSVLGDILGSAMQNTQNLLQMPYGCGEQNMVLFAPNIYVLDYLNETQQLTPEIKSKAIGYLNTGYQRQLNYKHYDGSYSTFGERYGRNQGNTWLTAFVLKTFAQARAYIFIDEAHITQALIWLSQRQKDNGCFRSSGSLLNNAIKGGVEDEVTLSAYITIALLEIPLTVTHPVVRNALFCLESAWKTAQEGDHGSHVYTKALLAYAFALAGNQDKRKEVLKSLNEEAVKKDNSVHWERPQKPKAPVGHFYEPQAPSAEVEMTSYVLLAYLTAQPAPTSEDLTSATNIVKWITKQQNAQGGFSSTQDTVVALHALSKYGAATFTRTGKAAQVTIQSSGTFSSKFQVDNNNRLLLQQVSLPELPGEYSMKVTGEGCVYLQTSLKYNILPEKEEFPFALGVQTLPQTCDEPKAHTSFQISLSVSYTGSRSASNMAIVDVKMVSGFIPLKPTVKMLERSNHVSRTEVSSNHVLIYLDKVSNQTLSLFFTVLQDVPVRDLKPAIVKVYDYYETDEFAIAEYNAPCSKDLGNA
B4: α1-antichymotrypsin: Human plasma inhibitor (protein)
chain: HPNSPLDEENLTQENQDRGTHVDLGLASANVDFAFSLYKQLVLKAPDKNVIFSPLSISTALAFLSLGAHNTTLTEILKGLKFNLTETSEAEIHQSFQHLLRTLNQSSDELQLSMGNAMFVKEQLSLLDRFTEDAKRLYGSEAFATDFQDSAAAKKLINDYVKNGTRGKITDLIKDLDSQTMMVLVNYIFFKAKWEMPFDPQDTHQSRFYLSKKKWVMVPMMSLHHLTIPYFRDEELSCTVVELKYTGNASALFILPDQDKMEEVEAMLLPETLKRWRDSLEFREIGELYLPKFSISRDYNLNDILLQLGIEEAFTSKADLSGITGARNLAVSQVVHKAVLDVFEEGTEASAATAVKITLLSALVETRTIVRFNRPFLMIIVPTDTQNIFFMSKVTNPKQA

Columns and labels:
[1] = tested on: PTP-A; assay type: biochemical, P. gingivalis
[2] = pH optimum and stability of PTP-A by amidolytic activity assay; assay type: physicochemical, P. gingivalis; settings: 0.2 M HEPES
Protocol: Enzyme Activity Assays—Routinely, the tripeptidyl peptidase amidolytic activity was measured with H-Ala-Phe-Pro-pNA (1 mM) in 0.2 M HEPES (N-2-hydroxyethylpeperazine,N′-2-ethansulfonic acid), pH 7.5 at 37° C. The concentration of enzyme was 0.1 nM to 1 nM. The assay was performed in a total volume of 0.2 ml on microplates, and the initial turnover rate was recorded at 405 nm using a microplate reader (Spectramax Molecular Devices, Sunnyvale, Calif.). In inhibition studies, the enzyme was first preincubated with inhibitor for 15 min at 37° C., substrate added, and residual activity recorded after 5 minutes to 30 minutes. H-Gly-Pro-pNA, Z-Ala-Pro-pNA, Z-Gly-Pro-pNA and H-Pro-pNA (1 mM final concentration) were assayed in the same manner.
PTP-A activity was not affected by class specific synthetic inhibitors of cysteine or metalloproteinases (Table 2).

[3] = tested on: PTP-A; assay type: biochemical, P. gingivalis; remark: listed apart in the source

Molecule | Cleavage of protein by PTP-A (in words) [1] | Stability (time stable) ([2]; pH 7.6, 25° C.) | Stability (time stable) ([2]; pH 7.6, 37° C.) | Effect on PTP-A amidolytic activity (in words) [3]
B1 | able to cleave a tripeptide | – | – | –
B2 | – | at least 12 hours | at least 12 hours | –
B3 | nor were they cleaved by PTP-A | – | – | did not affect the enzyme activity
B4 | nor were they cleaved by PTP-A | – | – | did not affect the enzyme activity
